# Measurements taken from article PMC4643373.
# Biological target: FMRP RGG box (UniProt Q06787 527-554)
# Assay: EMSA
binder,measurement,value
GGGUACGGGAGGGUAAGGCUGUGGGUCGCGUG (structured_RNA) [NR2B mRNA (32 nt)],binding result,binds
